Results as given in patent US20230015713A1.

Biological target: recombinant human FcγRIIa (131H)-glutathione-S-transferase (human) (UniProt P12318)
Assay: AlphaScreen competition: the antibody inhibits binding of FcγRIIa (131H)-GST to biotinylated human IgG1 (m6)

IC50 (read off the curve) | Substance
100 nM | wild-type romosozumab (antibody)
20 nM | romosozumab PARG (SEQ ID NO: 8) C-terminal variant (antibody)
